Numbering of substitutions follows the chain as printed. Names and notes keep the numbering of the source.
T1: α-fructosyl-valyl-histidyl-leucyl-threonyl-proryl-glutamic acid
T1 chain: VHLTPE

B1: fructosyl amino acid oxidase derived from Aspergillus nidulans resulting from substitution of serine at position 59 with glycine (protein)
chain: MTPRANTKIIVVGGGGTMGSSTALHLLRAGYTPSNITVLDTCPIPSAQSAGYDLNKIMGIRLRNKPDLQLSLEALDMWKNDPLFKPFFHNVGMIDVSSTEEGIEGLRKKYQSLLDAGIGLEKTNFMLESEDEILAKAPHFTQEQIKGWKGLFCGDGGWLAAAKAINAIGQFLKEQGVKFGFGGAGTFKKPLFADAHEKTCIGVETVDGTKYYADKVVLAAGAWSSTLVDLEEQCVSKAWVFAHIQLTPAEAAAYKNTPVIYDGDYGFFFEPNENGIIKVCDEFPGFTHFKMHQPYGSPAPKPISVPRSHAKHPTDTYPHASEVTIKKAINRFLPRFNDKELFNRAMCWCTDTADANLLVCEHPRWKGFYLATGDSGHSFKLLPNIGKHVVELLEERLESVFKDAWRWRPGSGDALKSRRAAPAKDLADMPGWRNEAKM
B2: AnFX-61D/62H/101K/105K/109L/112K/355S (protein)
chain: B1 chain with R61D, L62H, E101K, G105K, K109L, S112K, A355S
B3: AnFX-61D/105K/109L (protein)
chain: B1 chain with R61D, G105K, K109L
B4: fructosyl amino acid oxidase derived from Aspergillus oryzae RIB40 (protein)
chain: MTVTKSSSILIIGAGTWGASTALHLGRRGYTNVTVLDPYTVPSAISAGNDVNKIISSGQYSNKKDEIEVNEILAEEAFKGWTTDPLFKPYYHDTGVVMSACSSAGLDRLGIRVRPEEEPDVSEVTKPEHFRQLAPAVLKGNFPGWRGYHIRSNAGWAHARNALVAAIREAEKLGVKFVTGTQGRVITLIFENNDVKGAVTADGKIWRAEQTVLCAGANAAQFLDFKDQLRPTAWTLAHIRLKPEERALYKNLPVIFNIEKGFFFEPDEERGEIKICDEHPGYTNMVKSADGHLTSLPFEKTQIPKESEARVRALLSETMPQLADRPFSFARVCWCADTANREFIIDRHPEHPSLVLGCGASGRGFKYLPSIGNLIVDAIEDKVPEKVHKLTRWSPDIAVDRKWRDTLGRFGGPNRVMDFHDVKEWTNVQNKDTAKL
B5: fructosyl peptide oxidase derived from Eupenicillium terrenum (protein)
chain: MAHSRASTKVVVVGGGGTIGSSTALHLIRSGYTPSNITVLDVYKTPSLQSAGHDLNKIMGIRLRNGPDLQLSLESLDMWQNDELFKPFFHQVGMIDCSSSKEGIENLRRKYQTLLDAGIGLEKTNVWLESEDEILAKAPNFTREQVKGWKGLFCTDGGWLAAAKAINAIGIFLQDKGVKFGFGDAGTFQQPLFAADGKTCIGLETTDGTKYFADKVVLAAGAWSPTLVDLEDQCVSKAWVFAHIQLTPKEADAYKNVPVVYDGEYGFFFEPDEYGVIKVCDEFPGFSRFKLHQPYGAASPKMISVPRSHAKHPTDTYPDASEVTIRKAIARFLPEFKDKELFNRTMCWCTDTADANLLICEHPKWKNFILATGDSGHSFKLLPNIGKYVVELLEGSLSQEMAGAWRWRPGGDALRSRRGAPAKDLAEMPGWKHDAHL
B6: EFP-T5-R62D (protein)
chain: B5 chain with R62D
B7: fructosyl peptide oxidase derived from Phaeosphaeria nodorum (protein)
chain: MAPSRANTSVIVVGGGGTIGSSTALHLVRSGYTPSNVTVLDAYPIPSSQSAGNDLNKIMGVSLRNPVDLQLALEARQMWNEDELFKKFFHNTGRLDCAHGEKDIADLKSGYQALVDAGLDATNEWLDSEDEILKRMPLLSRDQIKGWKAIFSKDGGWLAAAKAINAVGEYLRDQGVRFGFYGAGSFKAPLLAEGVCIGVETVDGTRYYADKVVLAAGAWSPTLVELHEQCVSKAWVYGHIQLTPEEAARYKNSPVVYNGDVGFFFEPNEHGVIKVCDEFPGFTRFKMHQPFGAKAPKRISVPRSHAKHPTDTIPDASDVSIRRAIATFMPQFKNKKMFNQAMCWCTDTADAALLICEHPEWKNFVLATGDSGHSFKLLPNIGKHVVELLEGTLADDLAHAWRWRPGSGDALKSRRSAPAKDLADMPGWNHDKPRANL
B8: CFP-T7-H2-62N (protein)
chain: MTSNRADTRVIVVGGGGTIGSSTALHLVRSGYAPANITVLDTFEIPSAQSAGHDLNKIMGINLRNKVDLQMSLEARQMWKEDELFQPFFHNTGRMDCEHTPEGIEDLKKLYQALHDAGAGLEKTHAWLDNEDEILSKMPLLQRDQIQGWKAIWSQDGGWLAAAKAINAIGQFLKERGVKFGFGGAGSFKQPLFDDEGTTCIGVETADGTKYYADKVVLAAGAWSPTLVDLEDQCCSKAWVYAHIQLTPEEAAEYKGVPVVYNGEFGFFFEPDEFGVIKVCDEFPGFSRFKEHQPYGAPSPKRISVPRSHAKHPTDTYPDASEVSIKKAIATFLPRFQDKELFNRALCWCTDTADAALLMCEHPKWKNFILATGDSGHSFKILPNVGKYVVELIEGRLPEEMAYQWRWRPGGDALKSRRAAPPKDLADMPGWKHDPKL
B9: CFP-T7-H26 (protein)
chain: B8 chain with N62D, L63H, D106K, A113K
B10: CFP-T7-H2-62Q (protein)
chain: B8 chain with N62Q
B11: CFP-T7-H36 (protein)
chain: B8 chain with N62D, L63H, D68N, E102K, D106K, A113K, A355S
B12: CFP-T7-H7 (protein)
chain: B8 chain with N62D, R64A
B13: CFP-T7-H8 (protein)
chain: B8 chain with N62D, R64E
B14: CFP-T7-H9 (protein)
chain: B8 chain with N62D, R64H
B15: CFP-T7-H10 (protein)
chain: B8 chain with N62D, D106A
B16: CFP-T7-H37 (protein)
chain: B8 chain with N62D, L63H, D68N, E102K, D106K, A113K, A355S, A356T
B17: CFP-T7-H24 (protein)
chain: B8 chain with N62D, L63A, D106K, A113K
B18: CFP-T7-H27 (protein)
chain: B8 chain with N62D, L63K, D106K, A113K
B19: CFP-T7-H13 (protein)
chain: B8 chain with N62D, A113K
B20: CFP-T7-H29 (protein)
chain: B8 chain with N62D, L63H, D106K, A113K, A419K
B21: CFP-T7-H2 (protein)
chain: B8 chain with N62A
B22: CFP-T7-H11 (protein)
chain: B8 chain with N62D, D106K
B23: CFP-T7-H14 (protein)
chain: B8 chain with N62D, A113R
B24: CFP-T7-H12 (protein)
chain: B8 chain with N62D, D106R
B25: CFP-T7-H28 (protein)
chain: B8 chain with N62D, L63H, E102K, D106K, A113K
B26: CFP-T7-H2-62E (protein)
chain: B8 chain with N62E
B27: CFP-T7-H6 (protein)
chain: B8 chain with N62D
B28: CFP-T7-H25 (protein)
chain: B8 chain with N62D, L63D, D106K, A113K
B29: ketoamine oxidase derived from Neocosmospora vasinfecta (protein)
chain: MTTPRKETTVLIIGGGGTIGSSTALHLLRAGYTPSNITVLDTYPIPSAQSAGNDLNKIMGIRLRNKVDLQLSLEARDMWRNDALFRPFFHNTGRLDCESSAEGVEGLRREYQKLVEAGVGLEETHEWLDSEEAILEKAPLLQREEIEGWKAIWSEEGGWLAAAKAINAIGEELQRQGVRFGFGGAGSFKRPLFADDGTTCIGVETVDGTQYHADKVVLAAGAWSPALVDLEEQCCSKAWVYAHMQLTPEEAAVYKGCPVVYHGDVGFFFEPNENGVIKVCDEFPGFTRFKQHQPYGAPAPKPVSVPRSHAKHPTDTYPDASEESIKRAVSTFLPRFKDKPLFNRALCWCTDTADSALLICEHPRWKNFILATGDSGHSFKLLPIIGKHVVELVEGRLADDLAEAWRWRPGQGDARKSIRAAPAKDLADMPGWKHDQDSESR
B30: NvFX-62D/106K/110L (protein)
chain: B29 chain with R62D, G106K, E110L

Target: T1, α-fructosyl-valyl-histidyl-leucyl-threon …
Details: for αF6P oxidation activity: scale: relative value

| Protein | Specific activity (U/mg), 1 mM αF6P [U/mg] | αF6P oxidation activity | αF6P oxidation activity ratio (relative value (CFP-T7-H6 = 100)) | also measured |
| --- | --- | --- | --- | --- |
| B1 | 0 |  |  |  |
| B2 | 0.283 |  |  |  |
| B3 | 0.106 |  |  |  |
| B4 | 0.0022 |  |  |  |
| B5 | 0 |  |  |  |
| B6 | 0.0043 |  |  |  |
| B7 | 0.0091 |  |  |  |
| B8 |  |  |  | αF6P oxidation activity ratio (relative value (CFP-T7-H2 = 100)): 120 |
| B9 |  | 84.3 |  | αF6P oxidation activity ratio (relative value (CFP-T7-H20 = 100)): 142; αF6P oxidation activity ratio (relative value (CFP-T7-H26 = 100)): 100 |
| B10 |  |  |  | αF6P oxidation activity ratio (relative value (CFP-T7-H2 = 100)): 11 |
| B11 | 4.65 |  |  |  |
| B12 |  |  | 17 |  |
| B13 |  |  | 2 |  |
| B14 |  |  | 44 |  |
| B15 |  |  | 301 |  |
| B16 | 7.19 |  |  |  |
| B17 |  | 86.7 |  | αF6P oxidation activity ratio (relative value (CFP-T7-H20 = 100)): 123 |
| B18 |  |  |  | αF6P oxidation activity ratio (relative value (CFP-T7-H20 = 100)): 7 |
| B19 |  | 4.33 | 207 |  |
| B20 |  | 111 |  | αF6P oxidation activity ratio (relative value (CFP-T7-H26 = 100)): 102 |
| B21 |  | 0.0735 |  | αF6P oxidation activity ratio (relative value (CFP-T7-H2 = 100)): 100 |
| B22 |  | 12.5 | 951 |  |
| B23 |  | 4.22 | 183 |  |
| B24 |  | 11.6 | 636 |  |
| B25 |  | 134 |  | αF6P oxidation activity ratio (relative value (CFP-T7-H26 = 100)): 117; αF6P oxidation activity ratio (relative value (CFP-T7-H28 = 100)): 100 |
| B26 |  |  |  | αF6P oxidation activity ratio (relative value (CFP-T7-H2 = 100)): 21 |
| B27 |  | 3 | 100 | αF6P oxidation activity ratio (relative value (CFP-T7-H2 = 100)): 513 |
| B28 |  |  |  | αF6P oxidation activity ratio (relative value (CFP-T7-H20 = 100)): 24 |
| B29 | 0 |  |  |  |
| B30 | 0.003 |  |  |  |

Source: US20160251695
